Assay results reported in patent US20230201151A1, “FORMULATIONS AND METHODS FOR TREATING ACUTE RESPIRATORY DISTRESS SYNDROME, ASTHMA, OR ALLERGIC RHINITIS” (UNIVERSITY OF FLORIDA RESEARCH FOUNDATION, INC., priority 2020, published 2023).

Target: T1, ENaC (Homo sapiens, UniProt P37088+P51168+P51170)
T1 construct: primary cultures of human bronchial epithelial cells (HBEC) harvested from normal human lungs; endogenous in cells; host or cells: primary human bronchial epithelial cells (HBEC) from donor lungs, differentiated at an air-liquid interface
T1 sequence (P37088 1-669): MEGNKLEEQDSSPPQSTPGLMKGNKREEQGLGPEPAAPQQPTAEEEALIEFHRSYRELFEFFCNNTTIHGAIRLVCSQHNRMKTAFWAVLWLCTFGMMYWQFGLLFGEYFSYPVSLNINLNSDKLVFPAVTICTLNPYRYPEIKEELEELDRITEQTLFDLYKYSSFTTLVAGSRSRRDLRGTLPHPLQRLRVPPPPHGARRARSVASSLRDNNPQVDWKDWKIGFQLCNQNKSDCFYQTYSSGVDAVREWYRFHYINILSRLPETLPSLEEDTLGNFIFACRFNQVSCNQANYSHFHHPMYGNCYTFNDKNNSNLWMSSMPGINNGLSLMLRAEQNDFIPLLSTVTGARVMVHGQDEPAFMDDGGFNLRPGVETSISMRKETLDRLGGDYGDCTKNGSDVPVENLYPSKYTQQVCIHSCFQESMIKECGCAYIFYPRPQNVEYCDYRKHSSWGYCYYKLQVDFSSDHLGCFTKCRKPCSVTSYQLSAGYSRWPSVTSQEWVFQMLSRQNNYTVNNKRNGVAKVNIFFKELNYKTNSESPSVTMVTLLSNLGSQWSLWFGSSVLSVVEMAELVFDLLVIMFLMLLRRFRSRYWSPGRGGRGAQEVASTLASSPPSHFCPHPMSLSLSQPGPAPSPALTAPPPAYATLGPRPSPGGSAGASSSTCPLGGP
T1 sequence (P51168 1-640): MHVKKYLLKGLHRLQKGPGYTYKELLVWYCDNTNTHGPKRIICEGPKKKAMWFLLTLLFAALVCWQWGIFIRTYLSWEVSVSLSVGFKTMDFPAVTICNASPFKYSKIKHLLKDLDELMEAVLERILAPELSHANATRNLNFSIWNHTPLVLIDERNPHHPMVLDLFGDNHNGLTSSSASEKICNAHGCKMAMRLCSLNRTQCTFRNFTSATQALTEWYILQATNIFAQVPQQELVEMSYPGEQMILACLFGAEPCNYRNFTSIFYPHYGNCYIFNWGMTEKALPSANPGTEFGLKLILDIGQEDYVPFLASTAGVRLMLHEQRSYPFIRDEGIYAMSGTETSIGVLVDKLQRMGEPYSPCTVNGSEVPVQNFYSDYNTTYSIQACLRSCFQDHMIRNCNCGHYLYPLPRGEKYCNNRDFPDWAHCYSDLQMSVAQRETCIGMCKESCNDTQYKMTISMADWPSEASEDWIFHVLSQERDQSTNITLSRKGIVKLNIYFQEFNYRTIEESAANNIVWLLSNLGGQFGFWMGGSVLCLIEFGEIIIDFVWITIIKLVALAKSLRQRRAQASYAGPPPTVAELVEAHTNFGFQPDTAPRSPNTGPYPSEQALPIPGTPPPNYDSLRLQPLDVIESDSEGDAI
T1 sequence (P51170 1-649): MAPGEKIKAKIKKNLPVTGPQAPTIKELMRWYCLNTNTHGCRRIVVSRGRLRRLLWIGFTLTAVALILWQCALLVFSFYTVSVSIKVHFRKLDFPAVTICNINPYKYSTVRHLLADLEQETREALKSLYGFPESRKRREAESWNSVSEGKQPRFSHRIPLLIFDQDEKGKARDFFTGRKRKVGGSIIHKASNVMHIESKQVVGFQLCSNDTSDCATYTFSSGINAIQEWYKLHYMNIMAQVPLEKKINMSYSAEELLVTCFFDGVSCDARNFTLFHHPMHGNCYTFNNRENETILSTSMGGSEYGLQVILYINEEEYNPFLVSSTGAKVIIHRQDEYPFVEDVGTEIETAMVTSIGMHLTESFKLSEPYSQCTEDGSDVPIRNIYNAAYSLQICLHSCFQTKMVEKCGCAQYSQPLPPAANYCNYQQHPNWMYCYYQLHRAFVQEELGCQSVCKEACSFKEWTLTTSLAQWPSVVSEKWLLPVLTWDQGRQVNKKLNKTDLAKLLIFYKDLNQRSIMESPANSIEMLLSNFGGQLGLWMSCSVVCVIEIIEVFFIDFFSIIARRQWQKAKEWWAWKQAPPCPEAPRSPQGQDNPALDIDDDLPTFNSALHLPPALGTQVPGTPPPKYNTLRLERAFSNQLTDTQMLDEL
Experiment: ENaC current (benzamil-sensitive current) in IL-13-treated differentiated HBEC, Examples 1-2
Type: cell-based
Description: IL-13: abcam (#ab9577); Stock solution: 10 μg/mL water; 20 ng=2 μL Stock/mL media Media change with IL-13 every other day
Experimental design: IL-13 treatment with 20 ng/mL media for 4 and 14 days. Ussing chamber experiment in Basic Ringer (5 mM glucose in basolateral side).
In some embodiments, experimental studies called for determination of: • Baseline values (30 min) • Presence or absence of 6 μM Benzamil (on apical side) (15 min) • Presence or absence of 20 μM CFTRinh 172 (on apical and basolateral sides) (15 min) • Presence or absence 10 μM CaCCinh AO1 (on apical and basolateral sides) (10 min) • Presence or absence of 20 μM Bumetanide (on basolateral side) (15 min)
For Day 0 analysis: • IL-13 treatment: 0 ng/mL media • Ussing chamber experiment in basic ringer or amino acid (AA) formulations. • In addition, S side added 5 mM Glucose
Treatment for 4 days or 14 days analysis: • IL-13 treatment: 20 ng/mL media • Ussing chamber experiment in basic ringer or AA formulations. • In addition, S side added 5 mM Glucose
In some embodiments, the day 4 and day 14 experimental studies called for determination of: • Baseline values (30 min) • Presence or absence of 6 μM Benzamil (on mucosal side) (15 min) • Presence or absence of 20 μM Bumetanide (on serosal side) (15 min) • Presence or absence of 20 μM CFTRinh 172 (on mucosal and serosal sides) (15 min) […]

IL-13: Th2 cytokine (Abcam) added to HBEC culture medium
ENaC current versus IL-13 concentration (FIG. 2): dose-dependent reduction
day of maximum reduction in ENaC current (IL-13 exposure (FIG. 3)): 8 days
